One may read the EC50 as the concentration giving half of the maximal effect.

Experiment [1] addresses T1, recombinant human CTLA4 extracellular domain (human, UniProt P16410 36-161).
T1 construct: extracellular domain; also called huCTLA-4
T1 sequence (looked up): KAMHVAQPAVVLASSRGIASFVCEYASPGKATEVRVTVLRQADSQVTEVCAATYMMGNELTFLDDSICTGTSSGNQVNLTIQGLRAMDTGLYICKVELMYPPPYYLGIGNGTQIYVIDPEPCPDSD
Nature of the experiment: ELISA, immobilised huCTLA-4, table head pH 7.0 (text: pH 7.4), mean +/- SD. On the technique in general: An ELISA detects its analyte on a solid surface through an enzyme-linked reagent.

Experiment [2] concerns the target T1, recombinant human CTLA4 extracellular …. Description: ELISA, wells coated with human CTLA4, assay pH 6.0; lot 6972 in His buffer, T0; unit from the axis Log[ng/mL]. As to the method:
(§1) Both ELISA and FACS analysis were used to measure the binding activity. […] The amount of bound antibodies was quantified using anti-human IgG antibody conjugated to HRP. The absorbance at 450 nm in each measurement was proportional to the amount of antibodies bound. […] EC50 value (in ng/mL) for binding to human CTLA4 was determined by absorbance at 450 nm against antibody concentration with Prism variable slope of four-parameter dose-response curve, which was calculated using the nonlinear fit (variable slope, four parameters) model built into GraphPad Prism software (version 7.03). The buffers tested included His buffer (His), Tris buffer (Tris), Glutamine buffer (Glu) and no buffer.

Experiment [3] shares this target. Description: ELISA, wells coated with human CTLA4, assay pH 7.4; lot 6972 in Glu buffer, T0; unit from the axis Log[ng/mL]. As to the method:
as §1

Experiment [4] has the same target. Description: ELISA, wells coated with human CTLA4, assay pH 7.4; lot 6972 in Glu buffer, T2W; unit from the axis Log[ng/mL]. As to the method: as §1
In experiment [5] the target is T2, human CTLA4 expressed on the cell surface of CHO cells (human, UniProt P16410 36-223).
T2 construct: whole, on cells; also called CHO-huCTLA4; huCTLA4
T2 sequence (looked up): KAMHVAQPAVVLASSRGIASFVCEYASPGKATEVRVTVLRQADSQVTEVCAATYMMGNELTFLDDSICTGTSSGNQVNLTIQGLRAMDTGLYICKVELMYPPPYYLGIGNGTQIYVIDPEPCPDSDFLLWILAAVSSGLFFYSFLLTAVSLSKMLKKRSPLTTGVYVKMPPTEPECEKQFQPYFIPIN
Nature of the experiment: FACS, cells expressing human CTLA4, assay pH 6.0, MFI; lot 6972 in His buffer, T0; unit from the axis Log[ng/mL]. As to the method:
(§2) The amount of bound antibodies was quantified using anti-human IgG antibody conjugated to fluorophores. The MFI in each reaction was proportional to the amount of antibodies bound. The EC₅₀ value (in ng/mL) for binding to human CTLA4 on cells was determined by MFI of the singlets population against antibody concentration with a Prism variable slope of four-parameter dose-response curve, which was calculated using the nonlinear fit (variable slope, four parameters) model built into GraphPad Prism software (version 7.03).
(In general: Flow cytometry measures light scatter and fluorescence of single cells or particles in a stream.)

The target of experiment [6] is T2, human CTLA4 expressed on the cell …. Nature of the experiment: FACS, cells expressing human CTLA4, assay pH 6.0, MFI; lot 6972 in Glu buffer, T0; unit from the axis Log[ng/mL]. As to the method:
as §2

Experiment [7] has the same target. Description: FACS, cells expressing human CTLA4, assay pH 7.4, MFI; lot 6972 in Glu buffer, T0; unit from the axis Log[ng/mL]. As to the method: as §2
The target is the same in experiment [8]. Description: FACS, cells expressing human CTLA4, assay pH 7.4, MFI; lot 6972 in His buffer, T2W; unit from the axis Log[ng/mL]. As to the method: as §2
Experiment [9] has the same target. Description: FACS, cells expressing human CTLA4, assay pH 7.4, MFI; lot 6972 in Tris buffer, T0; unit from the axis Log[ng/mL]. As to the method: as §2
Experiment [10] deals with T1, recombinant human CTLA4 extracellular …. Description: ELISA, wells coated with human CTLA4, assay pH 7.4; lot 6972 without test buffer; same column repeated in FIG. 9B and FIG. 9C; unit from the axis Log[ng/mL]. As to the method: as §1
The target is the same in experiment [11]. Nature of the experiment: ELISA, wells coated with human CTLA4, assay pH 6.0; lot 6978 in Glu buffer, T0; unit from the axis Log[ng/mL]. As to the method: as §1
The target in experiment [12] is T2, human CTLA4 expressed on the cell …. Nature of the experiment: FACS, cells expressing human CTLA4, assay pH 7.4, MFI; lot 6978 in His buffer, T0; unit from the axis Log[ng/mL]. As to the method: as §2
Experiment [13] shares this target. Nature of the experiment: FACS, cells expressing human CTLA4, assay pH 7.4, MFI; lot 6978 in Glu buffer, T2W; unit from the axis Log[ng/mL]. As to the method: as §2
Experiment [14] shares this target. Description: FACS, cells expressing human CTLA4, assay pH 7.4, MFI; lot 6978 in Tris buffer, T2W; unit from the axis Log[ng/mL]. As to the method: as §2
The target in experiment [15] is T1, recombinant human CTLA4 extracellular …. Nature of the experiment: ELISA, wells coated with human CTLA4, assay pH 6.0; lot 6978 without test buffer; same column repeated in FIG. 9E and FIG. 9F; unit from the axis Log[ng/mL]. As to the method:
as §1

B1: BA-087-05-19 (antibody, V domains shown)
VH: EVQLVESGGGLVQPGGSLRLSCAASGFTFSHYTMHWVRQAPGKGLEWVSFISYDGNNKYYADSVKGRFTISRDNSKNTLYLQMNSLRAEDTAVYYCARTGWLGPFDYWGQGTLVTVSS
VL: AIQLTQSPSSLSASVGDRVTITCRASQYVGSSYLAWYLQKPGQSPQLLIYGAFSRATGIPARFSGSGSGTEFTLTISSLQSEDFAVYYCQQDGSSPWTFGQGTKVEIK
notes: Detected with anti-human IgG and a molecular weight of 146 kDa was used in SPR, so it was tested as a whole IgG; also called BA-087-05-019; BA-087-05-19 (# 6972)
B1: the concentration giving a half-maximal response (EC50) in [1] was 0.0598 µg/mL; in [2] it was 0.0154 µg/mL; in experiment [3], 0.11 µg/mL; in experiment [4], 0.022 µg/mL; in experiment [5], 0.291 µg/mL; in experiment [6] it was 0.291 µg/mL. The EC50 in experiment [7] amounted to 0.462 µg/mL; in [8], 0.615 µg/mL; in [9], 0.681 µg/mL; in experiment [10] it was 0.0546 µg/mL.

B2: BA-087-08-32 (antibody, V domains shown)
VH: EVQLVQSGAEVKKPGATVKISCKVSGFTFSHYTMHWIRQSPSRGLEWLGFISYDGNYKYYADSVKGRFTISRDNAKNSLYLQMNSLRAEDTAVYYCARTGWLGPFDYWGQGTLVTVSS
VL: EIVMTQSPATLSVSPGERATLSCRASQSVGSSYLAWYQQKPGKAPKLLIYGAFSRATGVPSRFSGSGSGTDFTLTISSLQPEDFATYYCQQDGSSPWTFGQGTKVEIK
notes: Detected with anti-human IgG and a molecular weight of 146 kDa was used in SPR, so it was tested as a whole IgG; also called BA-087-08-032; BA-087-08-32 (# 6978)
Turning to B2, the concentration giving a half-maximal response (EC50) worked out at 0.0337 µg/mL in experiment [11]; 0.849 µg/mL in experiment [12]; 1.41 µg/mL in experiment [13]; 1.54 µg/mL in experiment [14]; 0.0222 µg/mL in [15].

The values above are taken from US20210403565A1 (BIOATLA, published 2021).
